Results from the supplement of paper PMC7877785.
± gives the uncertainty stated by the source.

Assay: self-splicing fitness, log relative to wild type (ln ratio); higher = more splicing; Tetrahymena group I intron in knt gene, E. coli kanamycin selection, DiMSum; sequences stand for … in CUCUCU…GGAGGGAAAAGUUAUCAGGCAUGCACCUGGUAGCUAGUCUUUAAACCAAUAGAUUGCAUCGGUUUAAAAGGCAAGACCGUCAAAUUGCGGGAAAGGGGUCAACAGCCGUUCAGUACCAAGUCUCAGGGGAAACUUUGAGAUGGCCUUGCAAAGGGUAUGGUAAUAAGCUGACGGACAUGGUCCUAACCACGCAGCCAAGUCCUAAGUCAACAGAUCUUCUGUUGAUAUGGAUGCAGUUCACAGACUAAAUGUCGGUCGGGGAAGAUGUAUUCUUCUCAUAAGAUAUAGUCGGACCUCUCCUUAAUGGGAGCUAGCGGAUGAAGUGAUGCAACACUGGAGCCGCUGGGAACUAAUUUGUAUGCGAAAGUAUAUUGAUUAGUUUUGGAGUACUCGUGGUCG
Method in brief: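 Six replicate transformations of E. coli BL21(DE3) with a pET-22b(+) library were grown overnight at 37°C or 30°C. The library randomised all eight P1ex-region intron nucleotides, the intron lying in the knt kanamycin-resistance gene, and plates were LB agar with or without 25 μg/mL kanamycin plus 100 μg/mL carbenicillin, 50 μM IPTG and 0.2% rhamnose. Pooled colonies were amplicon-sequenced on an Illumina HiSeq 2500, and fitness is the DiMSum error-weighted combination of wild-type-normalised replicate fold changes, kanamycin versus none.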

Sequence	self-splicing fitness (ln) (30 °C)	self-splicing fitness (ln) (37 °C)
AUGAAGCAAUAUUACGCACU	0.079 ± 0.14	0.992 ± 0.22
UUUAAGCAAUAUUACGUAUA	-1.95 ± 0.12	-1.54 ± 0.14
UCGGAGCAAUAUUACGGCAU	-2.73 ± 0.21	-1.97 ± 0.37
CCGCAGCAAUAUUACGGACU	-3.14 ± 0.17	-2.31 ± 0.25
CUCCAGCAAUAUUACGGCAC	-3.68 ± 0.23	-3.27 ± 0.47
GUUAAGCAAUAUUACGGCGA	-0.403 ± 0.096	-0.122 ± 0.11
UCCCAGCAAUAUUACGGAGU	-0.413 ± 0.053	-0.504 ± 0.066
CAGGAGCAAUAUUACGACUU	-1.48 ± 0.19	-0.618 ± 0.22
GGUAAGCAAUAUUACGGUAA	-1.6 ± 0.17	-0.53 ± 0.14
GCGAAGCAAUAUUACGUGCU	-2.63 ± 0.16	-2.75 ± 0.2
CAGCAGCAAUAUUACGCGGC	-4.03 ± 0.27	-2.95 ± 0.18
AUGCAGCAAUAUUACGAUCA	-0.908 ± 0.14	-0.711 ± 0.14
UUCCAGCAAUAUUACGCAAA	-1.42 ± 0.12	-0.0764 ± 0.13
CUUGAGCAAUAUUACGCACU	-3.64 ± 0.39	-1.9 ± 0.44
AUGCAGCAAUAUUACGAAAC	-2.82 ± 0.46	-0.989 ± 0.27
GCCCAGCAAUAUUACGCAGU	-0.834 ± 0.049	0.141 ± 0.056
CUGUAGCAAUAUUACGUCAC	-3.21 ± 0.24	–
GGGGAGCAAUAUUACGAAGG	-2.62 ± 0.41	-1.44 ± 0.39
ACCAAGCAAUAUUACGGGGU	-3.66 ± 0.14	-3.5 ± 0.19
CCCCAGCAAUAUUACGUAUU	-3.55 ± 0.16	-3.28 ± 0.28
GAUGAGCAAUAUUACGAUGG	-1.57 ± 0.13	-2 ± 0.25
UGAAAGCAAUAUUACGCGAU	-2.15 ± 0.14	-2.37 ± 0.19
GUGUAGCAAUAUUACGGAUU	-2.13 ± 0.087	-1.16 ± 0.11
CAAAAGCAAUAUUACGGUGU	-4.34 ± 0.22	-2.36 ± 0.19
AUUCAGCAAUAUUACGAUGG	-2.57 ± 0.16	-0.688 ± 0.15

Sequence	self-splicing fitness (ln) (30 °C)	self-splicing fitness (ln) (37 °C)
AAGAAGCAAUAUUACGCUCC	-2.37 ± 0.2	-0.643 ± 0.18
GAUCAGCAAUAUUACGGCUA	-0.263 ± 0.099	0.0701 ± 0.11
AACCAGCAAUAUUACGCAGU	-2.6 ± 0.11	-1.35 ± 0.11
UAGUAGCAAUAUUACGAAAU	-2.89 ± 0.33	–
ACAGAGCAAUAUUACGCCAC	-2.45 ± 0.38	-1.33 ± 0.43
UGUGAGCAAUAUUACGUUAC	-3.75 ± 0.37	-2.6 ± 0.38
GCGUAGCAAUAUUACGCACC	-4.01 ± 0.37	-1.49 ± 0.34
GUUUAGCAAUAUUACGCAAC	-3.59 ± 0.48	-2.14 ± 0.39
AGCGAGCAAUAUUACGUACC	-0.987 ± 0.18	-0.589 ± 0.19
GCACAGCAAUAUUACGGUAG	-3.61 ± 0.15	-1.98 ± 0.11
UUCCAGCAAUAUUACGUUGA	-1.63 ± 0.078	-1.17 ± 0.092
CUGCAGCAAUAUUACGCCGC	–	-2.23 ± 0.45
CCUCAGCAAUAUUACGGUCC	-4.07 ± 0.36	–
UUAUAGCAAUAUUACGUUGU	-3.44 ± 0.27	-2.38 ± 0.23
UAAAAGCAAUAUUACGGGCC	-1.68 ± 0.2	-2.04 ± 0.38
GGAUAGCAAUAUUACGAACA	-1.95 ± 0.19	0.22 ± 0.15
GCUGAGCAAUAUUACGAUAA	-3.51 ± 0.4	-3.27 ± 0.35
UAUUAGCAAUAUUACGUUCU	-2.64 ± 0.24	-1.19 ± 0.17
GUCAAGCAAUAUUACGAAAU	-2.14 ± 0.13	-0.595 ± 0.12
GGAUAGCAAUAUUACGACGG	–	-2.87 ± 0.48
AAAUAGCAAUAUUACGAGUC	-3.89 ± 0.33	-2.2 ± 0.36
GGGUAGCAAUAUUACGUGGU	-2.59 ± 0.13	-2.04 ± 0.17
AGGGAGCAAUAUUACGCAUA	-2.22 ± 0.2	-2.63 ± 0.33
GUCCAGCAAUAUUACGUUAU	-0.827 ± 0.058	0.329 ± 0.07
